Legend:
purified protein [1] = substrate: NC(=O)c1ccc[n+]([C@@H]2O[C@H](COP(=O)(O)OP(=O)(O)OC[C@H]3O[C@@H](n4cnc5c(N)ncnc54)[C@H](O)[C@@H]3O)[C@@H](O)[C@H]2O)c1; test: purified protein; format: biochemical, Saccharina japonica; conditions: 100 mM Tris-HCl, co-substrate GDP-mannose, MBP fusion, varied: cofactor
purified protein [2] = substrate: Nc1nc2c(ncn2[C@@H]2O[C@H](COP(=O)(O)OP(=O)(O)O[C@H]3O[C@H](CO)[C@@H](O)[C@H](O)[C@@H]3O)[C@@H](O)[C@H]2O)c(=O)[nH]1; test: purified protein; format: biochemical, Saccharina japonica; conditions: 100 mM Tris-HCl, co-substrate NAD+, MBP fusion
[3] = optimal conditions (pH 8.25, 20 °C)
[4] = optimal conditions (pH 8.0, 30 °C)

B1: SjGMD2 (Saccharina japonica) (protein)
chain: MSGKENVVQIGCGVVGGAYAKAYVHHGFSLTGFDVVPAIIGNMNEAGIKCFHPDDCPADLNADIVLLSVPTPLIKETQRLDMKYVWSTIPLVVKLVEQSSGLAPILVIRSTVPPGTTLKWEAEVRAKTDKPFKVAFQPEFLRAVSCEEDARAPWQIVFGCAKDADETRTRMSNCFLDFVGRDEAKLTVLNIAEAEFMKLVHNYANGLKISFANCIYGLAHELDPTIDAQKVLYLVSSTAECYLSRKYGLRVGAPYGGVCLPKDVPELTSLAPEGSVFREFLAGTGKINEWITNTPNLKVELTESPNWVSPSELII
**Q.** Which Km (purified protein [1]; [3]) does the source give for B1 here?
**A.** 195 µM

**Q.** What about the Km (purified protein [2]; [3]) of the same protein?
**A.** 177 µM

B2: SjGMD1 (Saccharina japonica) (protein)
chain: MAEVMPKESIIQIGCGVVGGAYAKAYKHHGFSVRGFDVVPSIIEKMNDAGIPCCHPDDCPEDLNPEIVLLSVPTPLIKETQRLDMKYVWSTVPLVLKLVEQSTGPAPIFVIRSTVPPGMTKEWMAAVKEKATKPFHVAFQPEFLRAVSCEEDARAPWQVVFGYMTGEEEVKARMTNAFLEFVGRDESKLTVLNIAEAEFMKLAHNYANGLKISFANCIYGLANQLDPTIDAQKVLYLVSSTAECFLSRKYGLRVGAPYGGVCLPKDVPELTSLAPEGSVFREFLAGTGKINEWISGPEAKNMRVELDESPNWVSPDSLTT
**Q.** What does the source list for B2?
**A.** Km (purified protein [1]; [4]): 139 µM; Km (purified protein [2]; [4]): 289 µM

— PMC4782291, “Comparative characterization of two GDP-mannose dehydrogenase genes from Saccharina japonica (Laminariales, Phaeophyceae)” (BMC Plant Biology, 2016)
